B1: Multiple coagulation factor deficiency protein 2 (Homo sapiens), Q8NI22 (parent)
chain: MTMRSLLRTPFLCGLLWAFCAPGARAEEPAASFSQPGSMGLDKNTVHDQEHIMEHLEGVINKPEAEMSPQELQLHYFKMHDYDGNNLLDGLELSTAITHVHKEEGSEQAPLMSEDELINIIDGVLRDDDKNNDGYIDYAEFAKSLQ
partner: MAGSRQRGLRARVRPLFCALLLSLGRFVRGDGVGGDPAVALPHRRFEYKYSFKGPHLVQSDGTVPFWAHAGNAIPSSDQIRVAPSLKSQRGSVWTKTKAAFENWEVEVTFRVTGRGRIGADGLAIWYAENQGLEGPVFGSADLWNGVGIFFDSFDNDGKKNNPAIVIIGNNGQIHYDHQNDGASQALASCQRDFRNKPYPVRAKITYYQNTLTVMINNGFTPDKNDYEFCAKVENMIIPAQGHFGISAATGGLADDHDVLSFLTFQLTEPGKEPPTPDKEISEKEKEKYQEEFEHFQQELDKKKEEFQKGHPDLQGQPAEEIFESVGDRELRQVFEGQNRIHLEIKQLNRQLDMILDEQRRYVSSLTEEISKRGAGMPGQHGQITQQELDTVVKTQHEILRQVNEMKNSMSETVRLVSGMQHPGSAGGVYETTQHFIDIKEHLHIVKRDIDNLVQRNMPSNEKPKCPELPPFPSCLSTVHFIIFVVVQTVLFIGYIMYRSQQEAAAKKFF

Variants of: B1
Settings: with lman1_human LMAN1, P49257

Variant	effect of a mutation on the interaction
I136T	with no effect

— IntAct's records for PubMed 16304051
